From article PMC10433458 (Proceedings of the National Academy of Sciences of the …, 2023)
Read-outs that look alike come from different tables or passages of the source.

B1: phosphoribulokinase of A. thaliana (enzyme, A. thaliana (endogenous in leaves), UniProt P25697 47-395, looked up)
chain: AQETIVIGLAADSGCGKSTFMRRLTSVFGGAAKPPKGGNPDSNTLISDTTTVICLDDYHSLDRYGRKEQKVTALDPRANDFDLMYEQVKALKNGIAVEKPIYNHVTGLLDPPELIQPPKILVIEGLHPMFDERVRDLLDFSIYLDISNEVKFAWKIQRDMAERGHSLESIKASIEARKPDFDAFIDPQKQYADAVIEVLPTTLIPDDNEGKVLRVRLIMKEGVKYFSPVYLFDEGSTISWIPCGRKLTCSYPGIKFNYEPDSYFDHEVSVLEMDGQFDRLDELIYVESHLSNLSTKFYGEVTQQMLKHADFPGSNNGTGLFQTIVGLKIRDLYEQLIANKATARAEAKA
B2: phosphoribulokinase of C. reinhardtii (enzyme, UniProt P19824 32-375, looked up)
chain: DKDKTVVIGLAADSGCGKSTFMRRMTSIFGGVPKPPAGGNPDSNTLISDMTTVICLDDYHCLDRNGRKVKGVTALAPEAQNFDLMYNQVKALKEGKSVDKPIYNHVSGLIDAPEKIESPPILVIEGLHPFYDKRVAELLDFKIYLDISDDIKFAWKIQRDMAERGHSLESIKSSIAARKPDFDAYIDPQKKDADMIIQVLPTQLVPDDKGQYLRVRLIMKEGSKMFDPVYLFDEGSTISWIPCGRKLTCSFPGIKMFYGPDTWYGQEVSVLEMDGQFDKLEELIYVESHLSNTSAKFYGEITQQMLKNSGFPGSNNGTGLFQTIVGLKVREVYERIVKKDVVPV

Experiments:
[1] = target: the molecule itself; assay: SEC
[2] = target: the molecule itself; assay: SEC; remark: listed apart in the source

Row | Protein | stoichiometry N [1] | stoichiometry N [2]
1 | B1 | 2 | 
2 | B2 |  | 2
